Test results from patent publication US20210340271A1 (PROMAB BIOTECHNOLOGIES, published 2021).

How the values were obtained:
[1] = target: negative unrelated control protein; assay: ELISA, negative control antigen
[2] = target: T1, CD18 on HEK293-CD18 cells (UniProt P05107 23-769); assay: immunofluorescent staining of transfected HEK293 cells
T1 construct: whole, on cells; also called negative control protein CD18
T1 sequence (P05107 23-769 limits assumed): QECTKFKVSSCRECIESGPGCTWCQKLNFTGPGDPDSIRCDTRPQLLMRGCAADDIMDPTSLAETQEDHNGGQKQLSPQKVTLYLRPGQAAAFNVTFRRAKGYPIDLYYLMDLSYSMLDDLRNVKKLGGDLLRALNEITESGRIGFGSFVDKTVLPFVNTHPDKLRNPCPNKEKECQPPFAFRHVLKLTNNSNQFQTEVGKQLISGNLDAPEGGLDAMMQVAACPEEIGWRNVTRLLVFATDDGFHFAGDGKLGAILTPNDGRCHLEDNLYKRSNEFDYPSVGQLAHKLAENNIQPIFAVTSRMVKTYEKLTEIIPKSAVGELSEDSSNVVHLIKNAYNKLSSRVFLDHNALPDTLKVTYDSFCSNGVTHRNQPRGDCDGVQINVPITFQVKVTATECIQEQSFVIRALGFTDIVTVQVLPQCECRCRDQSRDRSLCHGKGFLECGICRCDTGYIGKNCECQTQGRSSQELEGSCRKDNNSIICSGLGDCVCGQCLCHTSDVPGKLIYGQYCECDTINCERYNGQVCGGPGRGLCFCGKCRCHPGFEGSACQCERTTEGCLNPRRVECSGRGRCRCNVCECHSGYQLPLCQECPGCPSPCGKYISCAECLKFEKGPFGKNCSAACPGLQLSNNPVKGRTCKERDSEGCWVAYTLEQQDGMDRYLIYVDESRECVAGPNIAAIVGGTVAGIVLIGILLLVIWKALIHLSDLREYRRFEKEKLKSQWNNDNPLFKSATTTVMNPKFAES

B1: mouse monoclonal anti-human CD37 antibody, clone 2B8D12 (antibody, IgG1, V domains shown)
VH: QVKLDETGGGLVQPGRPMKLSCVASGFTFSDYWMNWVRQSPEKGLEWVAQIRDKPYNYETFYSDSVKGRFTISRDDSKSSVYLQMNNLGAEDMGIYYCTGSFAYWGQGTLVTVSA
VL: DIQMTQSPASLSASEGETVTITCRASGNIHNYLAWYQQKQGKSPQLLVYNAKTLPDGVPSRVSGSGSGTQYSLKINNLQPEDFGNYYCQQYWSTPYTFGGGSRLEIKR
notes: Mouse hybridoma antibody; also called antibody CD37; CD37 antibody (2B8D12)
OD405 [1]: 0.098 OD405
binding result [2]: no binding
